Measurements: the supplement of paper PMC7877785
± gives the uncertainty stated by the source.

Experiment: self-splicing fitness, log relative to wild type (ln ratio); higher = more splicing; Tetrahymena group I intron in knt gene, E. coli kanamycin selection, DiMSum; sequences stand for … in CUCUCU…GGAGGGAAAAGUUAUCAGGCAUGCACCUGGUAGCUAGUCUUUAAACCAAUAGAUUGCAUCGGUUUAAAAGGCAAGACCGUCAAAUUGCGGGAAAGGGGUCAACAGCCGUUCAGUACCAAGUCUCAGGGGAAACUUUGAGAUGGCCUUGCAAAGGGUAUGGUAAUAAGCUGACGGACAUGGUCCUAACCACGCAGCCAAGUCCUAAGUCAACAGAUCUUCUGUUGAUAUGGAUGCAGUUCACAGACUAAAUGUCGGUCGGGGAAGAUGUAUUCUUCUCAUAAGAUAUAGUCGGACCUCUCCUUAAUGGGAGCUAGCGGAUGAAGUGAUGCAACACUGGAGCCGCUGGGAACUAAUUUGUAUGCGAAAGUAUAUUGAUUAGUUUUGGAGUACUCGUGGUCG
Method in brief: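 Colonies from six replicate transformations of E. coli BL21(DE3) were pooled and amplicon-sequenced on an Illumina HiSeq 2500. The library placed an intron with all eight P1ex-region nucleotides randomised inside the knt kanamycin-resistance gene on pET-22b(+), and cells grew overnight at 37°C or 30°C on LB agar with or without 25 μg/mL kanamycin (plus 100 μg/mL carbenicillin, 50 μM IPTG, 0.2% rhamnose). Fitness is the DiMSum error-weighted combination of wild-type-normalised replicate fold changes, kanamycin versus none.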

Sequence | self-splicing fitness (ln) (30 °C) | self-splicing fitness (ln) (37 °C)
UUAAAGCAAUAUUACGCAUC | -1.88 ± 0.17 | -1.39 ± 0.34
UUAAAGCAAUAUUACGCCCG | -0.0363 ± 0.09 | 0.273 ± 0.11
UUAAAGCAAUAUUACGCGAA | -0.169 ± 0.15 | 0.0649 ± 0.18
UUAAAGCAAUAUUACGCGAU | -3.01 ± 0.24 | -0.953 ± 0.17
UUAAAGCAAUAUUACGCGUC | -1.08 ± 0.11 | -1.66 ± 0.16
UUAAAGCAAUAUUACGCUGU | -1.31 ± 0.16 | -1.68 ± 0.2
UUAAAGCAAUAUUACGGGUG | 0.148 ± 0.069 | 0.271 ± 0.098
UUAAAGCAAUAUUACGGUCA | 0.199 ± 0.071 | 0.479 ± 0.11
UUAAAGCAAUAUUACGGUGC | -4.36 ± 0.42 | -2.14 ± 0.34
UUAAAGCAAUAUUACGGUGG | -0.511 ± 0.079 | 0.0701 ± 0.1
UUAAAGCAAUAUUACGUACU | -0.208 ± 0.079 | -0.142 ± 0.099
UUAAAGCAAUAUUACGUGGG | -1.65 ± 0.1 | -2.03 ± 0.17
UUAAAGCAAUAUUACGUUCA | 0.284 ± 0.087 | 0.233 ± 0.12
UUAAAGCAAUAUUACGUUCG | 0.19 ± 0.084 | -0.157 ± 0.096
UUACAGCAAUAUUACGACCA | -0.658 ± 0.14 | -0.854 ± 0.18
UUACAGCAAUAUUACGACCC | -2.6 ± 0.32 | -2.14 ± 0.44
UUACAGCAAUAUUACGAGUC | -4.54 ± 0.3 | -2.84 ± 0.26
UUACAGCAAUAUUACGAGUG | -1.16 ± 0.069 | -0.895 ± 0.079
UUACAGCAAUAUUACGAUCG | -0.32 ± 0.09 | -0.268 ± 0.11

Sequence | self-splicing fitness (ln) (30 °C) | self-splicing fitness (ln) (37 °C)
UUACAGCAAUAUUACGCGAA | -1.02 ± 0.12 | -0.94 ± 0.11
UUACAGCAAUAUUACGCGGU | -2.9 ± 0.12 | -3.15 ± 0.24
UUACAGCAAUAUUACGCUAA | -2.01 ± 0.13 | -0.87 ± 0.11
UUACAGCAAUAUUACGCUAC | -3.71 ± 0.22 | -1.96 ± 0.24
UUACAGCAAUAUUACGCUGA | -3.22 ± 0.17 | -2.55 ± 0.19
UUACAGCAAUAUUACGGCAC | -1.77 ± 0.17 | -2.26 ± 0.18
UUACAGCAAUAUUACGGCAG | -0.142 ± 0.077 | 0.248 ± 0.11
UUACAGCAAUAUUACGGGCA | -1.01 ± 0.1 | -0.657 ± 0.11
UUACAGCAAUAUUACGGGUA | -1.94 ± 0.097 | -0.854 ± 0.087
UUACAGCAAUAUUACGGUGG | -1.08 ± 0.087 | -0.457 ± 0.1
UUACAGCAAUAUUACGUAUC | -3.33 ± 0.19 | -3.28 ± 0.24
UUACAGCAAUAUUACGUCAC |  | -1.8 ± 0.23
UUACAGCAAUAUUACGUCCC | -3.48 ± 0.24 | -1.31 ± 0.25
UUACAGCAAUAUUACGUCCU | -2.11 ± 0.1 | -0.74 ± 0.089
UUACAGCAAUAUUACGUCGC | -2.92 ± 0.17 | -2.55 ± 0.18
UUACAGCAAUAUUACGUCUA | -0.0634 ± 0.086 | -0.0325 ± 0.079
UUACAGCAAUAUUACGUCUG | -1.59 ± 0.13 | -1.07 ± 0.12
UUACAGCAAUAUUACGUGAU | -4.22 ± 0.19 | -2.37 ± 0.17
UUACAGCAAUAUUACGUGCG | -0.895 ± 0.092 | -0.0854 ± 0.12
